Measurements taken from PMC5255556, “mTORC1 phosphorylates LARP6 to stimulate type I collagen expression” (Scientific Reports, 2017).
Substitutions are numbered along the chain they refer to.

Key:
[1] = biological target: T1, wt HA-LARP6 (La ribonucleoprotein domain family, member 6), full length (UniProt Q9BRS8 1-491); assay: co-IP; HLFs transduced with HA-LARP6 adenovirus; lysate in 50 mM Tris-HCl pH 7.5, 150 mM NaCl, 0.5% NP-40, 1 mM DTT; IP with anti-HA antibody 3 h at 4 °C, protein A/G-agarose, blot with anti-STRAP; cells untreated, treated with rapamycin, or with raptor knockdown (shRNA); conditions: partners not purified
T1 construct: LARP6 (La ribonucleoprotein domain family, member 6), full-length, re-cloned from pcDNA3 into pAd-CMV-Track; In cells the protein is a mixture of phosphorylated isoforms; The construct is described in earlier work of the authors; also called wt LARP6; FL HA-LARP6; source: HLFs (human lung fibroblasts), adenovirus-transduced, in lysate or in lysed microsomal fraction
T1 sequence (looked up): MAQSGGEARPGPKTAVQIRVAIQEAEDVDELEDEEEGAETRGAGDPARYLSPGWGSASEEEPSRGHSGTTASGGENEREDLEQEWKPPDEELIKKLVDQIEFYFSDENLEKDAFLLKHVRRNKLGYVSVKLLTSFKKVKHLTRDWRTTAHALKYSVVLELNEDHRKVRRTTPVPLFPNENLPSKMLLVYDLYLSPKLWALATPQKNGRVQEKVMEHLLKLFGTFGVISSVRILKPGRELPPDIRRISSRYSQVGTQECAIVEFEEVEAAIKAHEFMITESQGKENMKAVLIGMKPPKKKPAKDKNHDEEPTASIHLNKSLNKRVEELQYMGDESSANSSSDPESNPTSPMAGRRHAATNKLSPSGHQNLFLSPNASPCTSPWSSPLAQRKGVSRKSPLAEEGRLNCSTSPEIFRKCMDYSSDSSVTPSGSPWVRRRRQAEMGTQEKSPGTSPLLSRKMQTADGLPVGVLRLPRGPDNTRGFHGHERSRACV

[2] = biological target: T2, HA-LARP6 S348A/S409A mutant, full length (UniProt Q9BRS8 1-491, S348A | S409A); assay: as above; conditions: partners not purified
T2 construct: LARP6 (La ribonucleoprotein domain family, member 6), full-length, with S348A and S409A; Made by QuickChange site-directed mutagenesis; expressed from adenovirus; source: HLFs (human lung fibroblasts), adenovirus-transduced, in lysate or in lysed microsomal fraction
T2 sequence (looked up): T1 sequence (looked up) with S348A, S409A

fraction of STRAP pulled down after rapamycin relative to untreated cells [1]: ~0.33 fraction of untreated
STRAP pulled down relative to wt HA-LARP6 [2]: ~50 % less than wt HA-LARP6
B1: serine-threonine kinase receptor-associated protein (STRAP) (natural protein, human (endogenous in HLFs), UniProt Q9Y3F4 1-350, looked up)
chain: MAMRQTPLTCSGHTRPVVDLAFSGITPYGYFLISACKDGKPMLRQGDTGDWIGTFLGHKGAVWGATLNKDATKAATAAADFTAKVWDAVSGDELMTLAHKHIVKTVDFTQDSNYLLTGGQDKLLRIYDLNKPEAEPKEISGHTSGIKKALWCSEDKQILSADDKTVRLWDHATMTEVKSLNFNMSVSSMEYIPEGEILVITYGRSIAFHSAVSLDPIKSFEAPATINSASLHPEKEFLVAGGEDFKLYKYDYNSGEELESYKGHFGPIHCVRFSPDGELYASGSEDGTLRLWQTVVGKTYGLWKCVLPEEDSGELAKPKIGFPETTEEELEEIASENSDCIFPSAPDVKA
notes: STRAP, serine-threonine kinase receptor-associated protein, endogenous in human lung fibroblasts, detected with anti-STRAP antibody; source: endogenous, HLF lysate
